Measured values reported in US7968762.

Target: human Met receptor (human) (UniProt P08581)
Assay: cell-based or functional assay

Chain of UniProt P08581 (P08581 25-1390): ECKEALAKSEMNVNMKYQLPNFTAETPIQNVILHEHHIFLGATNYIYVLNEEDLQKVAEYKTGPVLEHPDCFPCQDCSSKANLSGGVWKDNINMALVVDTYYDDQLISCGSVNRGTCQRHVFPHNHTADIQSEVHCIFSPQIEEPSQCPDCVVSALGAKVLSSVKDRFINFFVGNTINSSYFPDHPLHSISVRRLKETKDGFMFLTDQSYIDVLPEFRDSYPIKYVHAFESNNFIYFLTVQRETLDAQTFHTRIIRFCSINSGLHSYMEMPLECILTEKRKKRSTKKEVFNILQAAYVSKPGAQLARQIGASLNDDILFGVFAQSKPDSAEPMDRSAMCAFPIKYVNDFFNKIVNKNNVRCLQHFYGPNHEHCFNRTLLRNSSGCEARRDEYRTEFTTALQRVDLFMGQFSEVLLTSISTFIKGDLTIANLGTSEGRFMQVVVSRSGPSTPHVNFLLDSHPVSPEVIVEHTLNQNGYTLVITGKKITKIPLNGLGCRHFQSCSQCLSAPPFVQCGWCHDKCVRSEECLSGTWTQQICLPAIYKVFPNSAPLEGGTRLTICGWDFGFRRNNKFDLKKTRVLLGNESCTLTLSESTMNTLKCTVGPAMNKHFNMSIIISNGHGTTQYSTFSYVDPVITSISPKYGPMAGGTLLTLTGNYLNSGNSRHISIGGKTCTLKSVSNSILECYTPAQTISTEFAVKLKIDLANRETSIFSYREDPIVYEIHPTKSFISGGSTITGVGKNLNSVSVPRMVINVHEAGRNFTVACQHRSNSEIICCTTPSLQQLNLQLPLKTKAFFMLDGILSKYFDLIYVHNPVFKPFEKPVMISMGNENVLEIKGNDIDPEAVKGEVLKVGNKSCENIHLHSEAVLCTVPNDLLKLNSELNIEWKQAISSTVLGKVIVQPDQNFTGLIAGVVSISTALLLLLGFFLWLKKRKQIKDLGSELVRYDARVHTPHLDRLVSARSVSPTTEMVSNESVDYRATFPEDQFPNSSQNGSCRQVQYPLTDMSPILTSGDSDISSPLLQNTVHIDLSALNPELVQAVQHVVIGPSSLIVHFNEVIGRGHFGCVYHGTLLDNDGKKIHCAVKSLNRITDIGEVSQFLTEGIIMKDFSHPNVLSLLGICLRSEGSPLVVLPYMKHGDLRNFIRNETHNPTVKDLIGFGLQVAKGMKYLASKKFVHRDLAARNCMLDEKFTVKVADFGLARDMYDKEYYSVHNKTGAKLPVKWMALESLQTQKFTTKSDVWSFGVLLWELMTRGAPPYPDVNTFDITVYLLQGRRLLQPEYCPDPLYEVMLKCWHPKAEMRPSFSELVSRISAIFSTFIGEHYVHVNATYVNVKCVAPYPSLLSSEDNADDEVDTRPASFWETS

With “human hepatocyte growth factor/scatter factor (hHGF/SF) (from UniProt P14210 32-728) (ligand)” the growth of subcutaneous SK-LMS-1 (high Met) xenografts in hHGF Tg scid mice against control scid mice was 3 fold.
